According to patent publication US7943296B2, “Methods of screening using a natriuretic peptide receptor” (Oregon Health & Science University, priority 2005, dated 2011):

Assays:
full-length NPRA = biological target: T1, full-length NPRA (Homo sapiens, UniProt P16066); assay: Association of NPRA fragment with full-length NPRA; format: binding; settings: in the presence or absence of activated PKG
T1 sequence (P16066 33-1061): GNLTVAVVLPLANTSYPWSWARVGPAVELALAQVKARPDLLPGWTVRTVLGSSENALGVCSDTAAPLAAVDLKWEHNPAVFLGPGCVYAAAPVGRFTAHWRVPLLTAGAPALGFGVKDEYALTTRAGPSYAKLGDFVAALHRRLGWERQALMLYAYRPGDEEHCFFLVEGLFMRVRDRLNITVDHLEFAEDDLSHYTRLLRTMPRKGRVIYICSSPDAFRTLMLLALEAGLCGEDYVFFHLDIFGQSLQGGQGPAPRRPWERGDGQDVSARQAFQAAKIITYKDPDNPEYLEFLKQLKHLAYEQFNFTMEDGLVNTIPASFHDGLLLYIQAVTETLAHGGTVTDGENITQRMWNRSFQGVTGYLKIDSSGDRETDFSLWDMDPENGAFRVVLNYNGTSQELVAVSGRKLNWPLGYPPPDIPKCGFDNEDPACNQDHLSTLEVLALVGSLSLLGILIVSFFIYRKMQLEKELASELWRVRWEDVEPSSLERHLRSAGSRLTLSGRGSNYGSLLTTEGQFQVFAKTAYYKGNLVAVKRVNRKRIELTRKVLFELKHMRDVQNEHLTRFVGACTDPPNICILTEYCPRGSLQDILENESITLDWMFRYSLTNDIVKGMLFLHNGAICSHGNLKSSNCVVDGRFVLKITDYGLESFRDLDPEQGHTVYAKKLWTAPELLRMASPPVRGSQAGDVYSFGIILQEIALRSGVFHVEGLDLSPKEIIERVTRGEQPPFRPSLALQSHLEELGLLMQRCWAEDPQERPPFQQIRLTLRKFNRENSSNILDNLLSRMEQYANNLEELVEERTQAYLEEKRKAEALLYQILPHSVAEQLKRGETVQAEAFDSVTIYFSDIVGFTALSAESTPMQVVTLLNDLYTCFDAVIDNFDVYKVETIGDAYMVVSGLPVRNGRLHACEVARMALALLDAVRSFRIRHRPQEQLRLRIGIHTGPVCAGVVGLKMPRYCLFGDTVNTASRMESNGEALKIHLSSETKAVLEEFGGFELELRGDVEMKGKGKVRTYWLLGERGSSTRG

NPRA [1] = assay: [35S]ATPγS incorporation into NPRA (receptor phosphorylation) in CFs; format: cell-based, rat; settings: ANP 5 minutes, KT5823 1 μM or expressed fragment
Protocol: To identify receptor phosphorylation by PKG, ^[35S]ATPγS was employed as a substrate. [^35S] incorporation into NPRA was analyzed according to the method previously described (Joubert et al., Biochem. 40:11096-105, 2001). Briefly, the treated CFs were scraped into 100 μl ice-cold incubation buffer (25 mM HEPES, pH 7.4, 50 mM NaCl, 5 mM MgCl2, 0.2 μM okadaic acid, 1 mM Na3VO4, 10 mM NaH2PO4, 10 mM NaF, and protease inhibitors (complete mini-tablet, Roche) and lysed by repeated passage through a 22-gauge needle. Lysates were added to incubation buffer containing 1 μCi [^35S]ATPγS (specific activity >1000 Ci/mmol), final volume of 200 μl, incubated at 37° C. for 30 minutes. Proteins were analyzed by SDS-PAGE (7.5%) and subsequent autoradiography.

NPRA [2] = biological target: T2, NPRA (Rattus norvegicus, UniProt P18910); assay: Total cGMP by enzyme immunoassay in NP-treated CFs; format: cell-based; settings: fragment expressed alone, no ANP; 100 μM IBMX
T2 construct: endogenous in cells; host or cells: primary neonatal rat cardiac fibroblasts, transfected with insertless vector or sNRF^(806-900)
T2 sequence (P18910 29-1057): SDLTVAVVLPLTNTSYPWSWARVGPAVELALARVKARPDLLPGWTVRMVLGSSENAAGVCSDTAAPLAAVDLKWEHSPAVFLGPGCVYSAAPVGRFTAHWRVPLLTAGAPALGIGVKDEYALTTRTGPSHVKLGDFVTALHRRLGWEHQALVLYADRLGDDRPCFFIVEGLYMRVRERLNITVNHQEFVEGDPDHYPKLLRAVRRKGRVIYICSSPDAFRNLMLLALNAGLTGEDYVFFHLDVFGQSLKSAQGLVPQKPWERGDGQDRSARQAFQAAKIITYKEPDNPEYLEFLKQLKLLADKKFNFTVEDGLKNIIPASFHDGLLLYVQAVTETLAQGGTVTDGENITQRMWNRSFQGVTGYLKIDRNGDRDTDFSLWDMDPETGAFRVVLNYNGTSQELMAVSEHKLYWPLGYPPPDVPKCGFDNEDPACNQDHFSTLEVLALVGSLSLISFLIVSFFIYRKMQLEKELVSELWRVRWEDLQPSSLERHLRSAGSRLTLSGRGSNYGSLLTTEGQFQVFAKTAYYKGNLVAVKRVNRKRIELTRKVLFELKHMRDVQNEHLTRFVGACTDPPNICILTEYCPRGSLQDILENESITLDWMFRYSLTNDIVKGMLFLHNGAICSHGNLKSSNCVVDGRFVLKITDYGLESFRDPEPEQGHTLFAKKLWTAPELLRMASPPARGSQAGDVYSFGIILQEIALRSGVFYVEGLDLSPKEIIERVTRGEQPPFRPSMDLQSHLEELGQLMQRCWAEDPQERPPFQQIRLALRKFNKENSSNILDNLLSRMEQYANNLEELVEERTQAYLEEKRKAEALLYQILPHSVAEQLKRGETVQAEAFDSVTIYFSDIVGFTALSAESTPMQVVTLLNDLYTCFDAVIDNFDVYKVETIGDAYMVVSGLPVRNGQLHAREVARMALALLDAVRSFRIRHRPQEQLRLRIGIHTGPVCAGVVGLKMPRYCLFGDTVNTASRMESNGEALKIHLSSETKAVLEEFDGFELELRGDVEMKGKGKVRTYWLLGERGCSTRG
Protocol: The ability of sNRF^(806-900) to reduce or inhibit downstream effects by modulating the intrinsic guanylyl cyclase activity of NPRA, was determined by measuring total cGMP levels in NP-treated CFs. CFs were transfected with insertless vector or sNRF^(806-900) as described in Example 7 and treated with ANP (100 nM) for 15 minutes. cGMP concentration was determined by enzyme immunoassay using a commercial kit (Enzyme immunoassay Biotrak EIA System, Amersham Biosciences). In all experiments, cells were treated with 100 μM IBMX with or without ANP.

cGMP levels (NPRA [2]): significantly increased cGMP levels
Substance: sNRF^(806-900): intracellular NPRA fragment, residues 806-900, excludes the cyclase-containing domain; shortest fragment observed to associate with PKG
association with full-length NPRA (full-length NPRA): failed to associate with full-length NPRA
ANP-induced NPRA phosphorylation (NPRA [1]): reduced ANP-induced NPRA phosphorylation to control levels
